The RNAGym collection of RNA variant scans (doi:10.1073/pnas.2313332121)

B1: TPR t1 (parent)
chain: GACCAAUCUGCCCUCAGAGCUCGAGAACAUCUUCGGAUGCAGAGGAGGCAGGCUUCGGUGGCGCGAUAGCGCCAACGUCCUCAACCUCCAAUGCAUCCCACCACAUGAUGAUGCCUGAAGAGCCUUGGUUUUUUG

Variants of: B1
Assay: polymerase ribozyme fitness, log enrichment relative to wild type (log ratio); higher = more active; in vitro selection for triplet polymerase activity
Summary of the method: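 In triplicate, a single round of in vitro selection was run on each mutant library, PCR-built and transcribed, covering one subunit of a heterodimeric triplet polymerase ribozyme. Frozen incubation at −7 °C followed annealing with a biotinylated primer, partner subunit and triplets, and extended constructs were then gel-excised, streptavidin-captured and taken through RT-PCR. Fitness is the logarithm of genotype enrichment over wild-type enrichment, from inverse-variance-weighted replicate averages of Illumina-sequenced inputs and outputs. […] only genotypes with ≥10 input reads and ≥1 read per output were kept.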

First: U7C U14G G48U C70G
Second: A16G G47A
The “polymerase ribozyme fitness (log ratio)” value of the first is lower: -5.7 for the first, -2.15 for the second.

Going from A5U C56G A74U G110A U116G C124G G135U to C79G U126G, the “polymerase ribozyme fitness (log ratio)” value rises from -6.08 to -2.94.

First: A43U C123G G127C
Second: C11G C22U C34A A37U C88A U96G C115U
The “polymerase ribozyme fitness (log ratio)” value of the first is higher: -1.59 for the first, -7.3 for the second.

First: A2C G47C C123G
Second: C8G G45C G48A U54G
The “polymerase ribozyme fitness (log ratio)” value of the first is lower: -2.2 for the first, 0.0312 for the second.

Going from C70G U78C C114U to G10A C28G U106A G127U G128C, the “polymerase ribozyme fitness (log ratio)” value rises from -5.32 to -3.76.

Compared with G71A G77A U78G, A50C G71A C79G C104A is lower in “polymerase ribozyme fitness (log ratio)” value: -4.6 for the first, -5.88 for the second.

Compared with A43U C56G G63A, C13G G60A G77C U130C is higher in “polymerase ribozyme fitness (log ratio)” value: -5.13 for the first, -3.08 for the second.

Going from A50U U112A C124U G128C to G120A, the “polymerase ribozyme fitness (log ratio)” value rises from -4 to 0.66.

First: C8A C11G C13U C20A G36A U78C
Second: G47C C62G G120C G128A
The “polymerase ribozyme fitness (log ratio)” value of the first is higher: -3.05 for the first, -5.53 for the second.

Compared with A46U C72U U96A G120A, U54A A119G is higher in “polymerase ribozyme fitness (log ratio)” value: -1.15 for the first, 0.648 for the second.

Compared with C11U C13U C53U G63U U92G C104U U112A, C12U C49G G61C is higher in “polymerase ribozyme fitness (log ratio)” value: -4.22 for the first, -1.89 for the second.

Going from C12U C64U C98U to G39U A46G C115G, the “polymerase ribozyme fitness (log ratio)” value falls from -0.396 to -3.39.

Compared with G61A A66G C104A, G44C C86G is higher in “polymerase ribozyme fitness (log ratio)” value: -3.27 for the first, -1.54 for the second.

First: G39A G44A G77A
Second: G69U C114U U133A
The “polymerase ribozyme fitness (log ratio)” value of the first is lower: -2.46 for the first, -1.47 for the second.

Going from G71U C72A C89A G117A to A111C U131A, the “polymerase ribozyme fitness (log ratio)” value rises from -5.63 to -1.12.

Compared with C15U C28A C72U C76G A121C, G71C C97U G117C is lower in “polymerase ribozyme fitness (log ratio)” value: -3.19 for the first, -5.75 for the second.

Going from G45C G58A to A2U C115G, the “polymerase ribozyme fitness (log ratio)” value falls from -0.146 to -3.95.

First: A41C G44U C115A G122U U130G
Second: C72A C82G A91C G93C
The “polymerase ribozyme fitness (log ratio)” value of the first is lower: -4.66 for the first, -3.15 for the second.

A50U G52C A83C and A46G C56A A91U are within 0.2 log units of each other in “polymerase ribozyme fitness (log ratio)” value: -2.39 for the first, -2.49 for the second.

Compared with C11U G51U, A46C G69U is higher in “polymerase ribozyme fitness (log ratio)” value: -3.04 for the first, -0.0247 for the second.

Going from G42U A84G to C79A A83G C115G C123A U131G, the “polymerase ribozyme fitness (log ratio)” value falls from -3.57 to -4.48.

Compared with C8G G120A, U21G A46C C49G is lower in “polymerase ribozyme fitness (log ratio)” value: 1.78 for the first, -3.41 for the second.

First: A18C A43G C114U U129C
Second: C53U U112A
The “polymerase ribozyme fitness (log ratio)” value of the first is lower: -3.16 for the first, 0.78 for the second.

Compared with A16C C123G, C4U U59A C62A A100C U106A C124G is lower in “polymerase ribozyme fitness (log ratio)” value: -0.273 for the first, -0.734 for the second.

Going from A18C C20A G93A G113A C124U U126G to U38G U92A U109G C114A G122U, the “polymerase ribozyme fitness (log ratio)” value falls from -4.14 to -6.12.

Compared with A18C A100C, U9A G42A C70U U129A is lower in “polymerase ribozyme fitness (log ratio)” value: -4.31 for the first, -4.53 for the second.

Compared with U14A U106A, A26U G60A C97U G110U is lower in “polymerase ribozyme fitness (log ratio)” value: -1.9 for the first, -5.7 for the second.

First: C13U A43C G71A C82A C98G C102A A105U G117C
Second: G61U G93U U130A
The “polymerase ribozyme fitness (log ratio)” value of the first is lower: -6.77 for the first, -1.63 for the second.

Compared with G36A A66C G120U, C12G C20U C72U G117U is lower in “polymerase ribozyme fitness (log ratio)” value: -1.74 for the first, -2.78 for the second.

First: G39C G42U G47C
Second: A2G G42U G69A C123A
The “polymerase ribozyme fitness (log ratio)” value of the first is higher: -3.36 for the first, -5.6 for the second.

First: A6U C73G
Second: A16C G52A
The “polymerase ribozyme fitness (log ratio)” value of the first is higher: -1.46 for the first, -1.81 for the second.

Going from G35C G63A C73A to G35U C70U C72U G120C, the “polymerase ribozyme fitness (log ratio)” value falls from -5.71 to -6.33.

First: C79G A84C C104A
Second: A50C C53U C56A
The “polymerase ribozyme fitness (log ratio)” value of the first is lower: -4.75 for the first, -0.754 for the second.

G25A C64G U81A C114A and U9C G25A are within 0.2 log units of each other in “polymerase ribozyme fitness (log ratio)” value: -5.93 for the first, -6.01 for the second.

Compared with C13G A74C, C15U G63A C79A C97U U112G is lower in “polymerase ribozyme fitness (log ratio)” value: -2.12 for the first, -4.94 for the second.

Going from C40U G51U G58A to C56U U96C C99U, the “polymerase ribozyme fitness (log ratio)” value rises from -4.36 to -3.29.

Compared with G44U C72G, C20G C40U is lower in “polymerase ribozyme fitness (log ratio)” value: -1.28 for the first, -2.61 for the second.

Going from U87G U129C to U14C G51U C104U, the “polymerase ribozyme fitness (log ratio)” value falls from 0.0365 to -4.54.

First: C73G C123A
Second: G44A A121G
The “polymerase ribozyme fitness (log ratio)” value of the first is lower: 0.232 for the first, 1.53 for the second.

G93C U96C G110A A118C and G17U G52C C72U are within 0.2 log units of each other in “polymerase ribozyme fitness (log ratio)” value: -2.57 for the first, -2.43 for the second.

First: C64G A84U U112A
Second: C11U C13U A50C A103C U125A
The “polymerase ribozyme fitness (log ratio)” value of the first is lower: -6.14 for the first, -5.37 for the second.

In the case of A43G G60C C73A C88A, the “polymerase ribozyme fitness (log ratio)” value is reported as -3.87.
